Target: T1, LasR (Pseudomonas aeruginosa PA14?) (UniProt A0A0H2Z901)
T1 sequence: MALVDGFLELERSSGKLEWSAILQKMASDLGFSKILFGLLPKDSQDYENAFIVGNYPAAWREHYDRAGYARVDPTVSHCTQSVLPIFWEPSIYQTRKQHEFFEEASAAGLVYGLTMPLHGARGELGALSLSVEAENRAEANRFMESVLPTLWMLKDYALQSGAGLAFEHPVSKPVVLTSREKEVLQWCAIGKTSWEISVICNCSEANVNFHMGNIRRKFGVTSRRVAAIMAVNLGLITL
Test: EMSA
Settings: LasR EMSA: 20 mM Tris-HCl pH 7.5, 50 mM KCl, 1 mM EDTA, 1 mM DTT, 100 ug/ml BSA, 10% glycerol, room temp 20 min, 1 pM each specific and nonspecific probe

Sequence	binding
GTCCGAATTCCCGGGAAGCGCCCTGTGACGGACTTCGAATCCTTGCGTCGCGCTCCGTCCTCCGGATTGAGCGGCGCGCTGCGGCGGCCGCGCTCCGGCGCAGCGCCACTGCCAGATCTGGCAGTTGTCGCTGGCGGGGACGGAGGTTTTAGTAGCCGCACTTTTTTCCAGGGCCGGGCAGTGGATCCGGAC (double strand) [PA14_40310 promoter]	binds
GTCCGAATTCCCGTGCTACCCCCGGCAGGCGTAGCCGCGGCAGCCTGCCTCGGCAAAAAGCCATCAGCCGGCGCGCTTCGACGCCCCTCATACCGCCCTTTCGCCAACTACCAATTCTCATAGTTGTGAGGGGAAATTTGTATCTTATTTTAAATACCCACGAAACATATAAAAACACACACAGCGAAACACTTCGGAAACCGGATCCGGAC (double strand) [PA14_48530 promoter]	binds
GTCCGAATTCCTTCTGATGCCGGCGCGGGCGCCCGGCCGGTATGGCCGGCAAGCCCGTCGACGGCTGTCCAGCTACCAGATCCGGTAGCCCTGCCAGATTTCGCAGGCGACCAGATCTGGCAGGTTGTTGGGCTCCCGGTGCCATGCAACCTATTACGCCTCTCGCCCCCCACCCGTTCGCGCAGGATCCGGAC (double strand) [PA14_37745 promoter]	binds
GTCCGAATTCGCAATGGCAGACCTTGCCGTTCAGCGACAGGCAGATCGACGCCGACCCGCAACTGCAACGGCTAAGCATTCGCGAATGATAAGCAATGCCTATCAGATCTGATGGGAAAAAAACTGACGGTTTTTCCGCGCTCGTTCGTCTTTAACCATAGAGGCGGCCCACAGCCGCCCGGTTCCAGGGAACACGTGCAGGATCCGGAC (double strand) [PA14_33830 promoter]	binds
GTCCGAATTCGCGGCTGAATCCGGCTGGGCAGCTGGCGATCATATCGCCAGCCACCCTGCTGGCCCCCGGCGCAGAGCGGCGCGGCTATGCTCGTGCGCCCGGAACGGCCCTATCCGTTCTGGGAGCTACCCCCTCGCCACCCTCGACTAGCATGACCAGGGAGGCCCGCAGTGGACGCCCAGGGCTAGGAGCCGCAGGCGGATCCGGAC (double strand) [PA14_41500 promoter]	binds
GTCCGAATTCGGCGGCCCTTTGCCTGCCTCTACCGGCTCACAGTGCGGGTGCCGACCGCTTTGCATTCCGCGACATCCATCAGGAGTGGGTAGCGAATCTGACCGGCCCGTCACATTTGGTAGGGACCTCAAACCGGCACCGAGGGCTAGGATCAGCCCGCTTCGAAATGAATCCGGTTCTGGAAAGGATCCGGAC (double strand) [PA14_53250 (cbpD) promoter]	binds
GTCCGAATTCGTGGAGGATCGCGTCGCGCAGCTGGCGATAGAGCTGGCCGACCAGGTCGTGGCGGCCGTCGAGGATCAGTTGCAGTTCCATGGCGAAATTGGCTACCTGGTATTTCTGGTAATTGGCTCTTCGTGGAAGCCAAAGGCAGGCTTAGTGTTACCCCATGCCGCGCCGCTTTCCACTCTCGCGGCTGCCAATCAGCCGGATCCGGAC (double strand) [PA14_03490 promoter]	binds
GTCCGAATTCTGGATCGTTTCGTCACAGGAAACGCTGGAGCGCCTATTCCAGAGCGCTTCGAACAATCGGTAAAAATAAAATCCAAATAATCAGACGCAGTTCAAAAACAACCAGAACAGATAGTTTTTCCGCCTTTCCCAACATGCTCCTCTCGCCTTGACTCGTTCGATGCAGCGGATCGCCCATGCGTATGTCCGGCATTGGATCCGGAC (double strand) [PA14_07430 promoter]	binds
GTCCGAATTCTTGTTCTATATGTTCGAACTTGGCTTTGCTCGTTGTTTTAATTTTGCGGAATAACCTCTGGAACTATTCATATGAATTTTTGAAAGTTTGGTTTACCTGAGAGATTTATGAGTTGACCTTGTCACGATGGCAGGACTCATGGTTCGCAGGAGTCAACAAACCAGGATCCGGAC (double strand) [PA14_18800 promoter]	binds
GTCCGGATCCAGTCGCACGGCGACTGCGCCGCCCCCATGGGCGCGGCGAGTCTCTCATCGGACTGAAGGGAGATTATTGGCGAGAGGACTGCGGCGGATAACCTGGCAGAACTGAACGTATCGTTGAATGGAATTCAACGATACCCAAGCCGGGCGGGAATCGCCCGGGCGAGGCCGCGTTCCCGGTGGCCCGCTCCTCGCCGCTAAGCTTGGAC (double strand) [PA14_33890 promoter]	binds more weakly
GTCCGGATCCCGAGGCTCTCCAGAGGAATCCACTGTTGTCTGCCTTATTTTTTATAAATTGTTAACTACCTGTTTTGGTAGGGTTTTCCAAATGGCCATCAATGTCGTTATGATGGCTATAGCCAAGCCGTAAAGGGCATGGACGCAGACGCCTGACGTTTGGCTGAAAATCTTTCATTGGAATTCGGAC (double strand) [lrs2 promoter]	binds
GTCCGGATCCGTCCGAACCCATGAGATGGCAAACCAATGACAACCCACTTTGCTCGGCAAATCGCCTCCCAGATCTCACAGTTCGAGGCGCTCGGCCTGGGCTCCACGGGGGCGACGGCATGCCTGGAAGCGAGCGGCCATCCATCGGGCCGATAGCGCTCCACCCCGTCTCGCCTGCCAGAATTCGGAC (double strand) [lrs1 promoter]	binds
GTCCGGATCCGTCTACCGCAGGGCATTCCGGCGTTTGTCGCGATCAGGGCGGGGGCATGGTTGCAGAGACGGCGGAAGGCTTCACCTACCACAATTGGCAGAGTCGCGGCGGCGATGCTCCGCGCCGGGTTCAACCGGCTTCGCTGAGTTCGGCGACCACCACTCCGGGAAGGTCTTTCAGCAGTGCCGGGGACAGCAGGAATTCGGAC (double strand) [PA14_34870 promoter]	binds
GTCCGGATCCGTTGAAGAGTGAAGCCTTTGGGGGAAGGGCCGCCGCGGCGGAATCCAATCCTTCATGTTGCCAGCTTTGGCAGAGGGATGGGGCCGGCGGCGGTTCGCCTTCCTATGTCAGTTTGTCGCAGCGGGCCGGCCCGCCGCGGTTCAGGACCTGTCGCTGGCGGCGATCTTCGCGAATTCGGAC (double strand) [PA14_23220 promoter]	no binding
GTCCGGATCCTTCCGTGAAGTGTTTCAAATAGCCAGCATCCCTGGTCGCTGATGTGGATTGCATAAAACACAGAACGCTCGTACCGGCTCAACTACAAGATCTGGTAGGTGCCAGACAGGGTATGCGGGATTGCTAAGCTGATGCTTCCTGCAATGCCGGAGGTTGTAGCCAAGTTGTAATTTTATTCTTTCGGTACGCAGGAAAGAATTCGGAC (double strand) [PA14_09480 (phzA1) promoter]	binds
